Source: patent US12649778
Several values for one entry are separate records, joined by “and”; a condition that tells them apart may be missing. Identical values can stand only once.

B1: 65D3 chimeric Fab, NNK library L3 mutant S to A (VL S25A) (Fab, V domains shown)
VH: QSLEESGGRLVTPGGSLTLTCTVSGFSLSTHDISWVRQAPGKGLEWIGVIARRGSTYYASWAKGRFTISKTSTTVDLKITSPTIEDTATYFCAREEFDFWGQGTLVTVSS
VL: AVLTQTASPVSAAVGGTVTISCQSAQSVYNNKELSWFQQKPGQPPKLLISYASTLASGVPSRFKGSGSGTQFTLTISDLECDDAATYYCLGGYASTIDMWAFGGGTEVVVK
B2: 65D3 chimeric Fab, NNK library L8 mutant N to H (VL N30H) (Fab, V domains shown)
VH: QSLEESGGRLVTPGGSLTLTCTVSGFSLSTHDISWVRQAPGKGLEWIGVIARRGSTYYASWAKGRFTISKTSTTVDLKITSPTIEDTATYFCAREEFDFWGQGTLVTVSS
VL: AVLTQTASPVSAAVGGTVTISCQSSQSVYHNKELSWFQQKPGQPPKLLISYASTLASGVPSRFKGSGSGTQFTLTISDLECDDAATYYCLGGYASTIDMWAFGGGTEVVVK
B3: 65D3 chimeric Fab, NNK library L5 mutant S to F (VL S27F) (Fab, V domains shown)
VH: QSLEESGGRLVTPGGSLTLTCTVSGFSLSTHDISWVRQAPGKGLEWIGVIARRGSTYYASWAKGRFTISKTSTTVDLKITSPTIEDTATYFCAREEFDFWGQGTLVTVSS
VL: AVLTQTASPVSAAVGGTVTISCQSSQFVYNNKELSWFQQKPGQPPKLLISYASTLASGVPSRFKGSGSGTQFTLTISDLECDDAATYYCLGGYASTIDMWAFGGGTEVVVK
B4: 65D3 chimeric Fab, NNK library L5 mutant S to K (VL S27K) (Fab, V domains shown)
VH: QSLEESGGRLVTPGGSLTLTCTVSGFSLSTHDISWVRQAPGKGLEWIGVIARRGSTYYASWAKGRFTISKTSTTVDLKITSPTIEDTATYFCAREEFDFWGQGTLVTVSS
VL: AVLTQTASPVSAAVGGTVTISCQSSQKVYNNKELSWFQQKPGQPPKLLISYASTLASGVPSRFKGSGSGTQFTLTISDLECDDAATYYCLGGYASTIDMWAFGGGTEVVVK
B5: 65D3 chimeric Fab, NNK library L3 mutant S to L (VL S25L) (Fab, V domains shown)
VH: QSLEESGGRLVTPGGSLTLTCTVSGFSLSTHDISWVRQAPGKGLEWIGVIARRGSTYYASWAKGRFTISKTSTTVDLKITSPTIEDTATYFCAREEFDFWGQGTLVTVSS
VL: AVLTQTASPVSAAVGGTVTISCQSLQSVYNNKELSWFQQKPGQPPKLLISYASTLASGVPSRFKGSGSGTQFTLTISDLECDDAATYYCLGGYASTIDMWAFGGGTEVVVK
B6: 65D3 chimeric Fab, NNK library L5 mutant S to Y (VL S27Y) (Fab, V domains shown)
VH: QSLEESGGRLVTPGGSLTLTCTVSGFSLSTHDISWVRQAPGKGLEWIGVIARRGSTYYASWAKGRFTISKTSTTVDLKITSPTIEDTATYFCAREEFDFWGQGTLVTVSS
VL: AVLTQTASPVSAAVGGTVTISCQSSQYVYNNKELSWFQQKPGQPPKLLISYASTLASGVPSRFKGSGSGTQFTLTISDLECDDAATYYCLGGYASTIDMWAFGGGTEVVVK
B7: 65D3 chimeric Fab, NNK library L8 mutant N to K (VL N30K) (Fab, V domains shown)
VH: QSLEESGGRLVTPGGSLTLTCTVSGFSLSTHDISWVRQAPGKGLEWIGVIARRGSTYYASWAKGRFTISKTSTTVDLKITSPTIEDTATYFCAREEFDFWGQGTLVTVSS
VL: AVLTQTASPVSAAVGGTVTISCQSSQSVYKNKELSWFQQKPGQPPKLLISYASTLASGVPSRFKGSGSGTQFTLTISDLECDDAATYYCLGGYASTIDMWAFGGGTEVVVK
B8: 65D3 chimeric Fab, NNK library L5 mutant S to T (VL S27T) (Fab, V domains shown)
VH: QSLEESGGRLVTPGGSLTLTCTVSGFSLSTHDISWVRQAPGKGLEWIGVIARRGSTYYASWAKGRFTISKTSTTVDLKITSPTIEDTATYFCAREEFDFWGQGTLVTVSS
VL: AVLTQTASPVSAAVGGTVTISCQSSQTVYNNKELSWFQQKPGQPPKLLISYASTLASGVPSRFKGSGSGTQFTLTISDLECDDAATYYCLGGYASTIDMWAFGGGTEVVVK
B9: 65D3 chimeric Fab, NNK library L8 mutant N to R (VL N30R) (Fab, V domains shown)
VH: QSLEESGGRLVTPGGSLTLTCTVSGFSLSTHDISWVRQAPGKGLEWIGVIARRGSTYYASWAKGRFTISKTSTTVDLKITSPTIEDTATYFCAREEFDFWGQGTLVTVSS
VL: AVLTQTASPVSAAVGGTVTISCQSSQSVYRNKELSWFQQKPGQPPKLLISYASTLASGVPSRFKGSGSGTQFTLTISDLECDDAATYYCLGGYASTIDMWAFGGGTEVVVK
B10: 65D3 chimeric Fab, NNK library L3 mutant S to K (VL S25K) (Fab, V domains shown)
VH: QSLEESGGRLVTPGGSLTLTCTVSGFSLSTHDISWVRQAPGKGLEWIGVIARRGSTYYASWAKGRFTISKTSTTVDLKITSPTIEDTATYFCAREEFDFWGQGTLVTVSS
VL: AVLTQTASPVSAAVGGTVTISCQSKQSVYNNKELSWFQQKPGQPPKLLISYASTLASGVPSRFKGSGSGTQFTLTISDLECDDAATYYCLGGYASTIDMWAFGGGTEVVVK
B11: 65D3 chimeric Fab, NNK library L18 mutant L to S (VL L55S) (Fab, V domains shown)
VH: QSLEESGGRLVTPGGSLTLTCTVSGFSLSTHDISWVRQAPGKGLEWIGVIARRGSTYYASWAKGRFTISKTSTTVDLKITSPTIEDTATYFCAREEFDFWGQGTLVTVSS
VL: AVLTQTASPVSAAVGGTVTISCQSSQSVYNNKELSWFQQKPGQPPKLLISYASTSASGVPSRFKGSGSGTQFTLTISDLECDDAATYYCLGGYASTIDMWAFGGGTEVVVK
B12: 65D3 chimeric Fab, NNK library L20 mutant S to T (L-S57T) (Fab, V domains shown)
VH: QSLEESGGRLVTPGGSLTLTCTVSGFSLSTHDISWVRQAPGKGLEWIGVIARRGSTYYASWAKGRFTISKTSTTVDLKITSPTIEDTATYFCAREEFDFWGQGTLVTVSS
VL: AVLTQTASPVSAAVGGTVTISCQSSQSVYNNKELSWFQQKPGQPPKLLISYASTLATGVPSRFKGSGSGTQFTLTISDLECDDAATYYCLGGYASTIDMWAFGGGTEVVVK
B13: 65D3 chimeric Fab, NNK library L3 mutant S to T (VL S25T) (Fab, V domains shown)
VH: QSLEESGGRLVTPGGSLTLTCTVSGFSLSTHDISWVRQAPGKGLEWIGVIARRGSTYYASWAKGRFTISKTSTTVDLKITSPTIEDTATYFCAREEFDFWGQGTLVTVSS
VL: AVLTQTASPVSAAVGGTVTISCQSTQSVYNNKELSWFQQKPGQPPKLLISYASTLASGVPSRFKGSGSGTQFTLTISDLECDDAATYYCLGGYASTIDMWAFGGGTEVVVK
B14: 65D3 chimeric Fab, NNK library L5 mutant S to V (VL S27V) (Fab, V domains shown)
VH: QSLEESGGRLVTPGGSLTLTCTVSGFSLSTHDISWVRQAPGKGLEWIGVIARRGSTYYASWAKGRFTISKTSTTVDLKITSPTIEDTATYFCAREEFDFWGQGTLVTVSS
VL: AVLTQTASPVSAAVGGTVTISCQSSQVVYNNKELSWFQQKPGQPPKLLISYASTLASGVPSRFKGSGSGTQFTLTISDLECDDAATYYCLGGYASTIDMWAFGGGTEVVVK
B15: 65D3 chimeric Fab, NNK library L5 mutant S to M (VL S27M) (Fab, V domains shown)
VH: QSLEESGGRLVTPGGSLTLTCTVSGFSLSTHDISWVRQAPGKGLEWIGVIARRGSTYYASWAKGRFTISKTSTTVDLKITSPTIEDTATYFCAREEFDFWGQGTLVTVSS
VL: AVLTQTASPVSAAVGGTVTISCQSSQMVYNNKELSWFQQKPGQPPKLLISYASTLASGVPSRFKGSGSGTQFTLTISDLECDDAATYYCLGGYASTIDMWAFGGGTEVVVK
B16: 65D3 chimeric Fab, NNK library L3 mutant S to R (VL S25R) (Fab, V domains shown)
VH: QSLEESGGRLVTPGGSLTLTCTVSGFSLSTHDISWVRQAPGKGLEWIGVIARRGSTYYASWAKGRFTISKTSTTVDLKITSPTIEDTATYFCAREEFDFWGQGTLVTVSS
VL: AVLTQTASPVSAAVGGTVTISCQSRQSVYNNKELSWFQQKPGQPPKLLISYASTLASGVPSRFKGSGSGTQFTLTISDLECDDAATYYCLGGYASTIDMWAFGGGTEVVVK
B17: 65D3 chimeric Fab, NNK library L3 mutant S to H (VL S25H) (Fab, V domains shown)
VH: QSLEESGGRLVTPGGSLTLTCTVSGFSLSTHDISWVRQAPGKGLEWIGVIARRGSTYYASWAKGRFTISKTSTTVDLKITSPTIEDTATYFCAREEFDFWGQGTLVTVSS
VL: AVLTQTASPVSAAVGGTVTISCQSHQSVYNNKELSWFQQKPGQPPKLLISYASTLASGVPSRFKGSGSGTQFTLTISDLECDDAATYYCLGGYASTIDMWAFGGGTEVVVK
B18: 65D3 chimeric Fab, NNK library H26 mutant G to K (H-G64K) (Fab, V domains shown)
VH: QSLEESGGRLVTPGGSLTLTCTVSGFSLSTHDISWVRQAPGKGLEWIGVIARRGSTYYASWAKKRFTISKTSTTVDLKITSPTIEDTATYFCAREEFDFWGQGTLVTVSS
VL: AVLTQTASPVSAAVGGTVTISCQSSQSVYNNKELSWFQQKPGQPPKLLISYASTLASGVPSRFKGSGSGTQFTLTISDLECDDAATYYCLGGYASTIDMWAFGGGTEVVVK
B19: 65D3 chimeric Fab, NNK library H17 mutant S to W (H-S55W) (Fab, V domains shown)
VH: QSLEESGGRLVTPGGSLTLTCTVSGFSLSTHDISWVRQAPGKGLEWIGVIARRGWTYYASWAKGRFTISKTSTTVDLKITSPTIEDTATYFCAREEFDFWGQGTLVTVSS
VL: AVLTQTASPVSAAVGGTVTISCQSSQSVYNNKELSWFQQKPGQPPKLLISYASTLASGVPSRFKGSGSGTQFTLTISDLECDDAATYYCLGGYASTIDMWAFGGGTEVVVK

Legend:
[1] = target: Peptide 1593 (…) (Mycobacterium tuberculosis); experiment: ELISA, NNK clone supernatant on coated peptide (22 hits)
[2] = target: Peptide 1593 (…) (Mycobacterium tuberculosis); experiment: ELISA, NNK clone supernatant on coated peptide

Row | Binder | OD450 nm [1] [OD450] | ratio (OD450 to WT OD450) [1] | OD450 nm [2] | ratio (OD450 to WT OD450) [2]
1 | B1 | 0.972 | 1.21 fold of WT | 0.972 OD450 | 1.21 fold of WT
2 | B2 | 0.957 | 1.26 fold of WT | 1.02 OD450 and 0.957 OD450 | 1.34 fold of WT and 1.25 fold of WT
3 | B3 | 1.11 | 1.43 fold of WT | 1.11 OD450 | 1.43 fold of WT
4 | B4 | 1.16 | 1.49 fold of WT | 1.16 OD450 | 1.49 fold of WT
5 | B5 | 0.954 | 1.18 fold of WT | 0.954 OD450 | 1.18 fold of WT
6 | B6 | 1.12 | 1.44 fold of WT | 1.1 OD450 and 1.12 OD450 | 1.41 fold of WT and 1.44 fold of WT
7 | B7 | 1.04 | 1.37 fold of WT | 1.04 OD450 and 1.03 OD450 | 1.37 fold of WT and 1.35 fold of WT
8 | B8 | 1.11 | 1.43 fold of WT | 1.11 OD450 | 1.43 fold of WT
9 | B9 | 0.958 | 1.26 fold of WT |  | 
10 | B10 | 0.982 | 1.22 fold of WT | 0.982 OD450 | 1.22 fold of WT
11 | B11 | 0.968 | 1.3 fold of WT | 0.968 OD450 | 1.3 fold of WT
12 | B12 |  |  | 0.977 OD450 | 2.05 fold of WT
13 | B13 | 0.956 | 1.19 fold of WT | 0.956 OD450 | 1.19 fold of WT
14 | B14 | 1.09 | 1.41 fold of WT | 1.09 OD450 | 1.41 fold of WT
15 | B15 | 1.14 | 1.47 fold of WT | 1.16 OD450 and 1.14 OD450 | 1.49 fold of WT and 1.47 fold of WT
16 | B16 | 0.963 | 1.19 fold of WT | 0.963 OD450 and 0.995 OD450 and 1.04 OD450 | 1.19 fold of WT and 1.23 fold of WT and 1.29 fold of WT
17 | B17 | 0.95 | 1.18 fold of WT | 0.95 OD450 and 0.97 OD450 | 1.18 fold of WT and 1.2 fold of WT
18 | B18 |  |  | 1.09 OD450 | 1.3 fold of WT
19 | B19 |  |  | 1.28 OD450 | 2.06 fold of WT
